Measured values taken from doi:10.1101/2024.03.21.586141, “Delving into human α1,4-galactosyltransferase acceptor specificity: the role of enzyme dimerization” (bioRxiv, 2024).

T1: human β1,4-galactosyltransferase 1 (B4galt1) (human, UniProt P15291-2 1-385)
T1 construct: human β1,4-galactosyltransferase 1, ORF of GenBank NM_001378495.1 nucleotides 30-1187 (1158 nt: 385 codons and stop); Synthetic ORF (Thermo Fisher) recloned into pBiT1.1-N/C and pBiT2.1-N/C; also called N-Lg-B4galt1; C-Lg-B4galt1; source: HEK293T or CHO-Lec2 cells, transfected (PEI), in live cells; not shown: LgBiT or SmBiT (NanoLuc subunit), N-terminal or C-terminal, kept
T1 sequence (looked up): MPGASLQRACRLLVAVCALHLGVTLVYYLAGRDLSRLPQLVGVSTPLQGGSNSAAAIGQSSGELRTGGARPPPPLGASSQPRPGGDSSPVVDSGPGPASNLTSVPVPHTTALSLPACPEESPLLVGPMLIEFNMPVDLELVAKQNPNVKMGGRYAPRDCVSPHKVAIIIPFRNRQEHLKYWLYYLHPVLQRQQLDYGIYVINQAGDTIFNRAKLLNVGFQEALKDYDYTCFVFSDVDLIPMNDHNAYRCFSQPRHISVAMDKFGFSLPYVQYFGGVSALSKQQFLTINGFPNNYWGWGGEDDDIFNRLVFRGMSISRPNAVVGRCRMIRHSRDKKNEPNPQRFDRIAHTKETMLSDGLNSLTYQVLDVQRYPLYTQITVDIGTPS

T2: human β1,4-galactosyltransferase 5 isoenzyme (B4galt5) (human, UniProt O43286 1-388)
T2 construct: human β1,4-galactosyltransferase 5, ORF of GenBank NM_004776.4 nucleotides 189-1355 (388 codons and stop); Synthetic ORF (Thermo Fisher) recloned into pBiT1.1-N/C and pBiT2.1-N/C; also called N-Lg-B4galt5; C-Lg-B4galt5; source: HEK293T or CHO-Lec2 cells, transfected (PEI), in live cells; not shown: LgBiT or SmBiT (NanoLuc subunit), N-terminal or C-terminal, kept
T2 sequence (looked up): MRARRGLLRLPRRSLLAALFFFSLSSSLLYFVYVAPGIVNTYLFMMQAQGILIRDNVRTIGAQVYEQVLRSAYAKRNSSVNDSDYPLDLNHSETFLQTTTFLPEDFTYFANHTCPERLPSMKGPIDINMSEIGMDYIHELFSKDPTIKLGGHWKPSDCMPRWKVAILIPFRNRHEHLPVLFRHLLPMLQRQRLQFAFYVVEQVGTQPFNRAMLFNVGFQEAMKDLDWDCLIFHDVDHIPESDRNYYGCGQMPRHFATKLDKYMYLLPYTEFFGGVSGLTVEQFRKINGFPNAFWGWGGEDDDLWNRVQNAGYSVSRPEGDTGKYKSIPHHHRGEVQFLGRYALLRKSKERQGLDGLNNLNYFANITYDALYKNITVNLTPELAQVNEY


Experiments:
Conditions in all cases: partners not purified
[1] = molecular target: T1, human β1,4-galactosyltransferase 1 …; experiment: split reporter (BiFC, NanoBiT); NanoBiT in live HEK293T cells, co-transfected with LgBiT and SmBiT fusions (N- or C-terminal, 25 ng of each plasmid a well), Nano-Glo Live Cell Substrate in Opti-MEM; fold of luminescence over LgBiT fusion with HaloTag-SmBiT, threshold 10-fold
[2] = molecular target: T1, human β1,4-galactosyltransferase 1 …; experiment: split reporter (BiFC, NanoBiT); NanoBiT in live CHO-Lec2 cells, co-transfected with LgBiT and SmBiT fusions (N- or C-terminal, 25 ng of each plasmid a well), Nano-Glo Live Cell Substrate in Opti-MEM; fold of luminescence over LgBiT fusion with HaloTag-SmBiT, threshold 10-fold
[3] = molecular target: T2, human β1,4-galactosyltransferase 5 …; experiment: as above

| fold of luminescence over the negative control [1] [times] | fold of luminescence over the negative control [2] [times] | fold of luminescence over the negative control [3] [times] | Binder |
| --- | --- | --- | --- |
| ~60 | 90 | 300 | human α1,4-galactosyltransferase (A4galt), high-frequency enzyme (p.Q211) (enzyme, UniProt Q9NPC4 1-353, looked up, human α1,4-galactosyltransferase, high-frequency variant with Q at position 211; full-length A4GALT gene from pCAG-A4GALT, GenBank NM_001318038.3 nucleotides 325-1386 (353 codons and stop); Four fusions were made (LgBiT or SmBiT at the N- or C-terminus, vectors pBiT1.1-N/C and pBiT2.1-N/C); every protein stood as LgBiT and as SmBiT fusion; also called Gb3/CD77 synthase; P1/Pk synthase; source: …) MSKPPDLLLRLLRGAPRQRVCTLFIIGFKFTFFVSIMIYWHVVGEPKEKGQLYNLPAEIPCPTLTPPTPPSHGPTPGNIFFLETSDRTNPNFLFMCSVESAARTHPESHVLVLMKGLPGGNASLPRHLGISLLSCFPNVQMLPLDLRELFRDTPLADWYAAVQGRWEPYLLPVLSDASRIALMWKFGGIYLDTDFIVLKNLRNLTNVLGTQSRYVLNGAFLAFERRHEFMALCMRDFVDHYNGWIWGHQGPQLLTRVFKKWCSIRSLAESRACRGVTTLPPEAFYPIPWQDWKKYFEDINPEELPRLLSATYAVHVWNKKSQGTRFEATSRALLAQLHARYCPTTHEAMKMYL |
| ~30 | 360 | ~1000 | human α1,4-galactosyltransferase (A4galt), mutein with p.Q211E substitution (enzyme, UniProt Q9NPC4 1-353, looked up, human α1,4-galactosyltransferase, rare natural variant p.Q211E (c.631C>G, rs397514502); full-length A4GALT gene from pCAG-A4GALT, GenBank NM_001318038.3 nucleotides 325-1386; Four fusions were made (LgBiT or SmBiT at the N- or C-terminus); also called mutein human A4galt; rare enzyme variant; source: HEK293T or CHO-Lec2 cells, transfected (PEI), in live cells; not shown: LgBiT or SmBiT (NanoLuc …)) MSKPPDLLLRLLRGAPRQRVCTLFIIGFKFTFFVSIMIYWHVVGEPKEKGQLYNLPAEIPCPTLTPPTPPSHGPTPGNIFFLETSDRTNPNFLFMCSVESAARTHPESHVLVLMKGLPGGNASLPRHLGISLLSCFPNVQMLPLDLRELFRDTPLADWYAAVQGRWEPYLLPVLSDASRIALMWKFGGIYLDTDFIVLKNLRNLTNVLGTESRYVLNGAFLAFERRHEFMALCMRDFVDHYNGWIWGHQGPQLLTRVFKKWCSIRSLAESRACRGVTTLPPEAFYPIPWQDWKKYFEDINPEELPRLLSATYAVHVWNKKSQGTRFEATSRALLAQLHARYCPTTHEAMKMYL |
